According to US20190322765A1 (Hoffmann-La Roche, published 2019):
“And” between values parts separate entries of the source, which are not always exact repeats. Equal entries are not always repeated.

Assays:
[1] = target: T1, human DPPIV on transfected HEK 293 cells (human, UniProt P27487 1-766); assay: FACS on HEK 293-human DPPIV cells, with HEK mock-transfected cells, cells only and sec. antibody as controls; concentration not shown
T1 construct: whole, on cells; also called CD26

[2] = target: T2, murine IL-2R βγ heterodimer (β knob γ hole Fc fusion) (murine, UniProt P16297 27-240; P34902 23-263); assay: SPR, receptor on CM5, 37°C, 1:1 fit
T2 construct: also called Mu IL-2R βγ; mouse IL-2R βγ heterodimer; not shown: Fc knob/hole part
T2 sequence (looked up) 1: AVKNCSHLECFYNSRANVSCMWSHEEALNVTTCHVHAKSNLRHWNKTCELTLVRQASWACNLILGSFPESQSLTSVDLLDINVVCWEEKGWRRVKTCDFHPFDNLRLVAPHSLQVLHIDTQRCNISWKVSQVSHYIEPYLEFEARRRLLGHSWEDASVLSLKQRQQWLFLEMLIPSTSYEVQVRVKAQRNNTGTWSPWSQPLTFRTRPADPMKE
T2 sequence (looked up) 2: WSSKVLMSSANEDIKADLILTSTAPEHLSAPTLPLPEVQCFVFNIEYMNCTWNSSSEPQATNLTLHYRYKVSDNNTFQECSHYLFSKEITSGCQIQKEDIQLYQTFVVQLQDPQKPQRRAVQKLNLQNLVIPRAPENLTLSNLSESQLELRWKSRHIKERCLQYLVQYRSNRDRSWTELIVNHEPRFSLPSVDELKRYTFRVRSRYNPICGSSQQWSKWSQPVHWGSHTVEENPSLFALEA

[3] = target: T3, human IL-2R βγ heterodimer, subunit-Fc knobs-into-holes fusion (human); assay: SPR, receptor on CM5, 37°C, 1:1 fit
T3 construct: The entries may hold a leader peptide; also called Hu IL-2R βγ; human IL2-R β knob γ hole heterodimer

[4] = target: T4, cynomolgus IL-2R βγ heterodimer (β knob γ hole Fc fusion) (cynomolgus); assay: SPR, receptor on CM5, 37°C, 1:1 fit
T4 construct: also called Cyno IL-2R βγ

[5] = target: T3, human IL-2R βγ heterodimer, subunit-Fc …; assay: SPR, receptor on CM5, 25°C, apparent KD, 1:1 fit
[6] = target: T5, IL-2R βγ heterodimer on human cells (NK92 cells, NK and T cells of PBMC) (human, UniProt P14784 27-551; P31785 23-369); assay: cell-based or functional assay
T5 sequence (looked up) 1: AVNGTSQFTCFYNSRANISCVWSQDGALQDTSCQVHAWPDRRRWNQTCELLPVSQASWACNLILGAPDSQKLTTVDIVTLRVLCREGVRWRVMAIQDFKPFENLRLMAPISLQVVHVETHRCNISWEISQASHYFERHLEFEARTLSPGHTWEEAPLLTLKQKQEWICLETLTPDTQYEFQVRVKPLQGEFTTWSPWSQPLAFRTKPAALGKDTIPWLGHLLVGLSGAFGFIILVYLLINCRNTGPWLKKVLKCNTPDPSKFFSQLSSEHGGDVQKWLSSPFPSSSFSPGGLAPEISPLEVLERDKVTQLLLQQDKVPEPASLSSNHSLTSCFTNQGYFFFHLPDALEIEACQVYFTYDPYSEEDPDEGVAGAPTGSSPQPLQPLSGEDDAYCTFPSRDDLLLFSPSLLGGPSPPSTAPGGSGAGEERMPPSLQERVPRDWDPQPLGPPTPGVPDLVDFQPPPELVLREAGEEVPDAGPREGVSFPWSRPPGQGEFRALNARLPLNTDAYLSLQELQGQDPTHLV
T5 sequence (looked up) 2: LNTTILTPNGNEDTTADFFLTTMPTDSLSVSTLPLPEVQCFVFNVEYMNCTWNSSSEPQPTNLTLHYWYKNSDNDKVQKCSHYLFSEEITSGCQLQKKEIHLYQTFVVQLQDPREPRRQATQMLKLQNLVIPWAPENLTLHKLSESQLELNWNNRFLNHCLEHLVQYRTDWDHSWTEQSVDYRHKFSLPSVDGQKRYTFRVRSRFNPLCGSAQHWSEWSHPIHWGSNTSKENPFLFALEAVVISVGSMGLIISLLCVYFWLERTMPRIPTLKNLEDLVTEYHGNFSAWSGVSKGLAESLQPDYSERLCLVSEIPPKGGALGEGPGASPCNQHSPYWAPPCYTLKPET

[7] = target: T6, human FAP expressed on stably transfected HEK293 cells (human, UniProt Q12884 1-760); assay: FACS on FAP-expressing HEK cells
T6 construct: whole, on cells

[8] = target: FAP on GM05389 fibroblasts; assay: FACS on GM05389 fibroblasts, surface-bound construct detected with secondary antibody after the times shown (internalization analysis); concentration not shown
[9] = target: T6, human FAP expressed on stably …; assay: FACS on HEK 293-human FAP cells, median fluorescence against concentration
[10] = target: T7, human IL-2R α-subunit, monomeric, with AcTev cleavage site and Avi His tag (human); assay: SPR, receptor on CM5, 25°C
T7 construct: also called Hu IL-2R α; CD25
T7 chain: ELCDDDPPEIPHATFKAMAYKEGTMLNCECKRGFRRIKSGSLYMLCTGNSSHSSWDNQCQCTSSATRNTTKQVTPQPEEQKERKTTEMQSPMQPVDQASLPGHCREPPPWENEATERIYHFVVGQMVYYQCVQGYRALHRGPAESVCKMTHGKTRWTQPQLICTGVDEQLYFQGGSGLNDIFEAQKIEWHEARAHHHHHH

[11] = target: T2, murine IL-2R βγ heterodimer (β knob γ …); assay: SPR, receptor on CM5, 25°C, 1:1 fit
[12] = target: T3, human IL-2R βγ heterodimer, subunit-Fc …; assay: SPR, receptor on CM5, 25°C, 1:1 fit
[13] = target: T4, cynomolgus IL-2R βγ heterodimer (β knob …); assay: SPR, receptor on CM5, 25°C, 1:1 fit
[14] = target: T8, cynomolgus IL-2R α-subunit, recombinant monomeric (cynomolgus, UniProt H6WS54 22-240); assay: SPR, receptor on CM5, 25°C
T8 construct: also called Cyno IL-2R α
T8 sequence: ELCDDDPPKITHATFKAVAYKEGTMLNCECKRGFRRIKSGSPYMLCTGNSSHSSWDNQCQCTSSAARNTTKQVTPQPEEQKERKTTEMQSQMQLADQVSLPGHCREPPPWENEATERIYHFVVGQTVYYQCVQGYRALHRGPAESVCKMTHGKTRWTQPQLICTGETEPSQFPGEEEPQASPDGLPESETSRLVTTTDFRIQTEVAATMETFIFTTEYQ

[15] = target: T9, murine IL-2R α-subunit, recombinant monomeric (murine, UniProt P01590 22-236, limits assumed); assay: SPR, receptor on CM5, 25°C
T9 construct: also called Mu IL-2R α
T9 sequence (looked up): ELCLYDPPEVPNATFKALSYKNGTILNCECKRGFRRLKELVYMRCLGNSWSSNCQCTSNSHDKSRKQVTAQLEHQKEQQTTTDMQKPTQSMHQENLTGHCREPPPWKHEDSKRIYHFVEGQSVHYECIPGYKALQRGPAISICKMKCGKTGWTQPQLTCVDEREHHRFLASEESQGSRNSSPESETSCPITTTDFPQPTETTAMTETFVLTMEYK

binding result [1]: no binding
Kd [2]: 142 nM and 106 nM
Kd [3]: 14.3 nM and 14.7 nM
Kd [4]: 21.3 nM and 21.2 nM
Kd [5]: 11.4 nM
EC50 of STAT5 phosphorylation, CD8+ T cells [6]: 20.6 nM
EC50 of STAT5 phosphorylation, NK cells [6]: 3.47 nM
EC50 of STAT5 phosphorylation, Treg cells [6]: 19.7 nM
EC50 [7]: 0.7 nM
binding result [8]: binds
EC50 (read off the curve) [9]: ~10 nM
binding result [10]: no binding (tested: 300 nM)
Kd [11]: 66 nM and 54 nM
Kd [12]: 7.5 nM and 6.9 nM
Kd [13]: 8.9 nM and 8.4 nM
binding result [14]: no binding (tested: 25 nM)
binding result [15]: no binding (tested: 25 nM)
B1: 28H1 Fab-IL-2 qm-Fab (other)
chain: EVQLLESGGGLVQPGGSLRLSCAASGFTFSSHAMSWVRQAPGKGLEWVSAIWASGEQYYADSVKGRFTISRDNSKNTLYLQMNSLRAEDTAVYYCAKGWLGNFDYWGQGTLVTVSSASTKGPSVFPLAPSSKSTSGGTAALGCLVKDYFPEPVTVSWNSGALTSGVHTFPAVLQSSGLYSLSSVVTVPSSSLGTQTYICNVNHKPSNTKVDKKVEPKSCDSGGGGSGGGGSGGGGAPASSSTKKTQLQLEHLLLDLQMILNGINNYKNPKLTRMLTAKFAMPKKATELKHLQCLEEELKPLEEVLNGAQSKNFHLRPRDLISNINVIVLELKGSETTFMCEYADETATIVEFLNRWITFAQSIISTLTSGGGGSGGGGSGGGGEVQLLESGGGLVQPGGSLRLSCAASGFTFSSHAMSWVRQAPGKGLEWVSAIWASGEQYYADSVKGRFTISRDNSKNTLYLQMNSLRAEDTAVYYCAKGWLGNFDYWGQGTLVTVSSASTKGPSVFPLAPSSKSTSGGTAALGCLVKDYFPEPVTVSWNSGALTSGVHTFPAVLQSSGLYSLSSVVTVPSSSLGTQTYICNVNHKPSNTKVDKKVEPKSCD
light: EIVLTQSPGTLSLSPGERATLSCRASQSVSRSYLAWYQQKPGQAPRLLIIGASTRATGIPDRFSGSGSGTDFTLTISRLEPEDFAVYYCQQGQVIPPTFGQGTKVEIKRTVAAPSVFIFPPSDEQLKSGTASVVCLLNNFYPREAKVQWKVDNALQSGNSQESVTEQDSKDSTYSLSSTLTLSKADYEKHKVYACEVTHQGLSSPVTKSFNRGEC
notes: Fab-IL-2-Fab immunoconjugate against FAP with quadruple mutant IL-2; also called FAP 28H1 qm
